Laboratory results from patent US20260117259A1.
Read-outs that look alike come from different tables or passages of the source.

How the values were obtained:
[1] = target: 16055-ConM-v8.1ds SOSIP trimer (HIV-1); assay: flow cytometry, VRC26.25 HCDR3-edited primary murine B cells, labeled SOSIP against surface IgM
[2] = target: ConM SOSIP protein (v8.1ds) modified with the BG505 V1V2 region (HIV-1); assay: as above
[3] = target: ConM SOSIP protein (v8.1ds) modified with the CRF250 V1V2 region (HIV-1); assay: as above
ConM-v8.1ds [4] = assay: as above
BG505ConM-v7ds (GnTI-) = assay: as above
BG505ConM-v7ds = assay: as above
BG505ConM-v8.1 (GnTI-) = assay: as above
BG505ConM-v8.1ds (GnTI-) = assay: as above
BG505ConM-v8.1 = assay: as above
CRF250ConM-v7ds (GnTI-) = assay: as above
CRF250ConM-v7ds = assay: as above
CRF250ConM-v8.1 (GnTI-) = assay: as above
CRFConM-v8.1ds (GnTI-) = assay: as above
[5] = target: ConM SOSIP protein (v8.1ds) modified with the BG505 V1V2 region (HIV-1); assay: as above; remark: listed apart in the source
[6] = target: ConM SOSIP protein (v8.1ds) modified with the CRF250 V1V2 region (HIV-1); assay: as above; remark: listed apart in the source
ConM-8.1ds (GnTI-) = assay: as above
ConM-v7 (GnTI-) = assay: as above
ConM-v7ds (GnTI-) = assay: as above
ConM-v7ds = assay: as above
ConM-v7 = assay: as above
ConM-v8.1(GnTI-) = assay: as above
ConM-v8.1ds [7] = assay: as above; remark: listed apart in the source
[8] = target: 16055-ConM-v8.1ds SOSIP trimer (HIV-1); assay: flow cytometry, primary murine B cells edited in the HCDR3, labeled 16055-ConM-v8.1ds SOSIP against surface IgM
SOSIP [9] = assay: flow cytometry of murine B cells edited with the VRC26.25 HCDR3, APC-labeled SOSIP trimer against anti-IgM; activation Anti-CD180
SOSIP [10] = assay: flow cytometry of murine B cells edited with the VRC26.25 HCDR3, APC-labeled SOSIP trimer against anti-IgM; activation High dose LPS
SOSIP [11] = assay: flow cytometry of murine B cells edited with the VRC26.25 HCDR3, APC-labeled SOSIP trimer against anti-IgM; activation Low dose LPS + IL4

“B-cell receptors of primary murine B cells edited to express the VRC26.25 HCDR3 (antibody)” showed a % of cells in the SOSIP gate [1] of 3.83%, a % of cells in the SOSIP gate [2] of 3.59% and a % of cells in the SOSIP gate [3] of 3.22%. The % of cells in the SOSIP gate (ConM-v8.1ds [4]) was 3.62%, the % of cells in the SOSIP gate (BG505ConM-v7ds (GnTI-)) was 4.61% and the % of cells in the SOSIP gate (BG505ConM-v7ds) was 5.08%. For the same substance, the % of cells in the SOSIP gate (BG505ConM-v8.1 (GnTI-)) was 7.41%, the % of cells in the SOSIP gate (BG505ConM-v8.1ds (GnTI-)) was 6.39% and the % of cells in the SOSIP gate (BG505ConM-v8.1) was 5.19%. The % of cells in the SOSIP gate (CRF250ConM-v7ds (GnTI-)) was 6.33%, the % of cells in the SOSIP gate (CRF250ConM-v7ds) was 5.46% and the % of cells in the SOSIP gate (CRF250ConM-v8.1 (GnTI-)) was 5.16%. The % of cells in the SOSIP gate (CRFConM-v8.1ds (GnTI-)) was 7.8%, the % of cells in the SOSIP gate [5] was 5.87% and the % of cells in the SOSIP gate [6] was 6.6%. For the same substance, the % of cells in the SOSIP gate (ConM-8.1ds (GnTI-)) was 7.68%, the % of cells in the SOSIP gate (ConM-v7 (GnTI-)) was 7.31% and the % of cells in the SOSIP gate (ConM-v7ds (GnTI-)) was 4.48%. The % of cells in the SOSIP gate (ConM-v7ds) was 5.51%, the % of cells in the SOSIP gate (ConM-v7) was 5.57% and the % of cells in the SOSIP gate (ConM-v8.1(GnTI-)) was 6.89%. It also gave a % of cells in the SOSIP gate (ConM-v8.1ds [7]) of 6.58%, a % of cells in the SOSIP gate [8] of 4.54% and a % of cells above the SOSIP gate line (SOSIP [9]) of 4.47%. The % of cells above the SOSIP gate line (SOSIP [10]) was 3.41% and the % of cells above the SOSIP gate line (SOSIP [11]) was 4.62%.
